The target in the experiment is Recombinant human HER3-Fc chimera protein (Homo sapiens, UniProt P21860). Nature of the experiment: BLI. A general note: Biolayer interferometry detects binding as a change in optical thickness at a sensor tip.

For orientation: Kd means the concentration at which binding is half-saturated.

Sequence of Recombinant human HER3-Fc chimera protein (P21860 20-643, change not shown): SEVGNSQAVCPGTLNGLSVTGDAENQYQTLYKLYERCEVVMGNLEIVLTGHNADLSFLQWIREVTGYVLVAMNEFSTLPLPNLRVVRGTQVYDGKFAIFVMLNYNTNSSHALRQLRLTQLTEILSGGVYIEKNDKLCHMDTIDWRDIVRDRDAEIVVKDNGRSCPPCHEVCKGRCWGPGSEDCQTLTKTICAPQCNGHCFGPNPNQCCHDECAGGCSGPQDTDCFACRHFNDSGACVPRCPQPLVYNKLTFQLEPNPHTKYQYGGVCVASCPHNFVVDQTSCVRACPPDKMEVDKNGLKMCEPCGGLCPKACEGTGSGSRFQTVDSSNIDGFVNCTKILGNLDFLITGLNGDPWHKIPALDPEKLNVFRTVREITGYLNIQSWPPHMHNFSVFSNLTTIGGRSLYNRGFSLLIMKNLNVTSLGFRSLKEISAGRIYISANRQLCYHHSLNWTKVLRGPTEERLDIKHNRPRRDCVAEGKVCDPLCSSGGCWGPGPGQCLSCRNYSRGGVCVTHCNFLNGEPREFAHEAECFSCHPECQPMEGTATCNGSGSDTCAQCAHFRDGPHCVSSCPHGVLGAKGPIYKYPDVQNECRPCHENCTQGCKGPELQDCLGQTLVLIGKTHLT

B1: anti-HER3 scFv (scFv, V domains shown)
VH: not shown
VL: DIQMTQSPSSLSASVGDRVTITCRASQGISNYLAWYQQKPGKAPKLLIYAASSLQSGVPSRFSGSRSGTDFTLTISSLQPEDFATYYCQQYGWLPLTFGQGTKVEIK
As to B1, the Kd turned out to be 0.02 ± 0.0014 µM.

B2: IRDye800CW-labeled anti-HER3 scFv (scFv, V domains shown)
VH: not shown
VL: DIQMTQSPSSLSASVGDRVTITCRASQGISNYLAWYQQKPGKAPKLLIYAASSLQSGVPSRFSGSRSGTDFTLTISSLQPEDFATYYCQQYGWLPLTFGQGTKVEIK
In the case of B2, the dissociation constant (Kd) amounted to 0.029 ± 0.0037 µM.

Values taken from publication PMC6160764 (Theranostics, 2018).
